Experimental data published in the RNAGym collection of RNA variant scans (doi:10.1073/pnas.2313332121).

B1: TPR t1 (parent)
chain: GACCAAUCUGCCCUCAGAGCUCGAGAACAUCUUCGGAUGCAGAGGAGGCAGGCUUCGGUGGCGCGAUAGCGCCAACGUCCUCAACCUCCAAUGCAUCCCACCACAUGAUGAUGCCUGAAGAGCCUUGGUUUUUUG

Variants of: B1
Experiment: polymerase ribozyme fitness, log enrichment relative to wild type (log ratio); higher = more active; in vitro selection for triplet polymerase activity
In short: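 Fitness compares each genotype's enrichment to that of the wild type on a logarithmic scale, averaging replicates with inverse-variance weights. The logarithm is base 2. Enrichment came from Illumina sequencing of input and output libraries after one triplicate round of in vitro selection, which included frozen incubation at −7 °C, of PCR-built, transcribed mutant libraries of each subunit of a heterodimeric triplet polymerase ribozyme. Only genotypes with ≥10 input reads and ≥1 read per output were kept.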

Row | Variant | polymerase ribozyme fitness (log ratio)
1 | GACCAAUCUGCCCUCAGAGCUCGAGAACAUCUUCGGAUGCAGAGGAGGCAGGCUGCGGUGGCGCGAUAGCGUCAACGUCCUCAACCCCCAAUGCAUCCCACCACAUUAUGAUGCCUGAAGAGCCUUGGUUUUUUG | -4.49
2 | GACCAAUCUGCCCUCAGAGCUCGAGAACAUCUUCGGAUGCAGAGGAGGCAGGCUGCGGUGGCGCGAUAGUGCCAACGUCCUCAACCUCAAAUGCAUCCCACCAUAUGAUGAUGCCUGAAGAGCCUUGGUUUUUUG | -2.38
3 | GACCAAUCUGCCCUCAGAGCUCGAGAACAUCUUCGGAUGCAGAGGAGGCAGGCUCCGGUGGCGCGAUAGCACCAACGUCCUCAUCCUCCAAUGCAUCCCACAAUAUGAUGAUGCCUGAAGAGCCUUGGUUUUUUG | -3.41
4 | GACCAAUCUGCCCUCAGAGCUCGAGAACAUCUUCGGAUGCAGAGGAGGCAGGCUGCGGUGGCGCGAUAGCGCCAACGUCCUCAACCUACAAUGCAUCCCACCACAUGAUGAUGCUUGAAGAGCAUUGUUUUUUUG | -4.24
5 | GACCAAUCUGCCCUCAGAGCUCGAGAACAUCUUCGGAUGCAGAGGAGGCAGGCUGCGGUGGCGCGAUAGCGCCAACGUCCUAAACCUCCAAUGCAUCCCACCACAUGAUGAUGCCUGAAGAGCCUUGGUUUUUUG | -0.266
6 | GACCAAUCUGCCCUCAGAGCUCGAGAACAUCUUCGGAUGCAGAGGAGGCAGGCUGCGGUGGCGCGAUAGCGCCAACGUCCUCAACCUCCAAUGCAUCCCACCCCAUGAUGAUGCCUGAAGAGCCUUGGUUUUUUG | -4.87
7 | GACCAAUCUGCCCUCAGAGCUCGAGAACAUCUUCGGAUGCAGAGGAGGCAGGCUGCGGUGGCGCGAUAGCGCCAACGUCCUCAACCUCCAAUGCAUCCCACCAAAUGAUGAUGCCUGAAGAGCCUUGGUUUUUUG | -1.59
8 | GACCAAUCUGCCCUCAGAGCUCGAGAACAUCUUCGGAUGCAGAGGAGGCAGGCUCCGGAGGCGCGAUAGCGCCAACGUCCUCAACCUUCAAUGCAUCCCACCACAUGAUGAUGCCUGAAGAGCCUUGGUUUUUUG | -0.406
9 | GACCAAUCUGCCCUCAGAGCUCGAGAACAUCUUCGGAUGCAGAGGAGGCAGGCUCCGGUGGCGCGAUAGCGCCAACGUCCUCAACCUCCAAGGCAUCCCACCACAUGAUGAUGCCUGAAGAGCCUUGGUUUUUUG | -2.25
10 | GACCAAUCUGCCCUCAGAGCUCGAGAACAUCUUCGGAUGCAGAGGAGGCAGGCUGCGGUGGCGCGAUAGCGCCAACGUCCUCAACCUCCAAUGCAUCCUACCACAUGAUGAUGCCUGAAGAGCCUUGGUUUUUUG | -2.45
11 | GACCAAUCUGCCCUCAGAGCUCGAGAACAUCUUCGGAUGCAGAGGAGGCAGGCUCCGGUGGCGCGAUAGCGCCAACGUCCUCAACCUCCAAUGCAUCCCACCACAUGAUGAUACCUGAAGAGCCUUGGUUUUUUG | -1.89
12 | GACCAAUCUGCCCUCAGAGCUCGAGAACAUCUUCGGAUGCAGAGGAGGCAGGCUCCGGUGGCGCGAUAGCGCCAACGUCCUCAACCUCCAAUGCAUCCCACCACAUGAUGAUUCCUGAAGAGCCUUGGUUUUUUG | -3.3
13 | GACCAAUCUGCCCUCAGAGCUCGAGAACAUCUUCGGAUGCAGAGGAGGCAGGCUGAGGUGGCGCGAUAGCGCCAACGUGCUCAACCUCCAAUGCAUCCCACCACAUGAUGAUGCCUGAAGAGCUUUGGUUUUUUG | -0.518
14 | GACCAAUCUGCCCUCAGAGCUCGAGAACAUCUUCGGAUGCAGAGGAGGCAGGCUGCGGUGGCGUGAUAGCGCCAACGUCCUCAACCUCCCAGGCAUCCCAACACAUGAUGAUGCCUGAAGAGCCUUGGUUUUUUG | -3.82
15 | GACCAAUCUGCCCUCAGAGCUCGAGAACAUCUUCGGAUGCAGAGGAGGCAGGCUGCGGUGGCGCGAUAGCGCAAACGUCCUCAACCUCCAAUGCAUCCCACCACAUGAUGAUGCCUGAAGAGCCUUGGUUUUUUG | 0.256
16 | GACCAAUCUGCCCUCAGAGCUCGAGAACAUCUUCGGAUGCAGAGGAGGCAGGCUCCGGUGGCUCGAUAGCGCCAACGUCCUCAACCUCCAAUGCAUCCCACCACAUGAUGAUGCCUGAAGAGCCUUGGUUUUUUG | -1.09
17 | GACCAAUCUGCCCUCAGAGCUCGAGAACAUCUUCGGAUGCAGAGGAGGCAGGCUGCGAUGGCGCGAUAGCGCCAACGUCCUCAACCUCCAAUGCAUCCCACCACAUGAUGAUGCCUGAAGAGCCUUGGUAUUUUG | -0.383
18 | GACCAAUCUGCCCUCAGAGCUCGAGAACAUCUUCGGAUGCAGAGGAGGCAGGCUCCGGUGGCGCGAUAGCGCCAACGUCCUCAACCUCCAAUCCAUCCCACCACAUGAUGAUGCCUGAAGAGCCUUGGUUUUAUG | -0.554
19 | GACCAAUCUGCCCUCAGAGCUCGAGAACAUCUUCGGAUGCAGAGGAGGCAGGCUGGGGUGGCGCGAUGGCGCCAACGUCCUCAACCUCCAAUGCAUCCCACCACAUGAUGAUGCCUGAAGAGCCUUGGUUUUUUG | -5.14
20 | GACCAAUCUGCCCUCAGAGCUCGAGAACAUCUUCGGAUGCAGAGGAGGCAGGCUGCGGUGGCGCGAUAGCGCCAACGUCCUCAACCUCCCAGGCAUCCCAACACAUGAUGAUGCCUGAAGAGCCUUGGUUUUUUG | -3.67
21 | GACCAAUCUGCCCUCAGAGCUCGAGAACAUCUUCGGAUGCAGAGGAGGCAGGCUGCGGUGGCGCGAUAGCGCCAACGUCCUCAACCUCCAAUGCAUCCCACCACAUGAUGAUGCCUGAAGCGCCUUGGUUUUUUU | 1.07

Row | Variant | polymerase ribozyme fitness (log ratio)
22 | GACCAAUCUGCCCUCAGAGCUCGAGAACAUCUUCGGAUGCAGAGGAGGCAGGCUGCGGUGGCGCGAUAGCGCCAACGUCCUCAAUCUCCAAUGCAUCCCACCACAUGAUGAUGCCUGAAGAGCCUUGGUUUUUUG | -0.919
23 | GACCAAUCUGCCCUCAGAGCUCGAGAACAUCUUCGGAUGCAGAGGAGGCAGGCUGGGGUGGCGCGAUAGCGCCAACGACCUCAACCUCCAAUGCAUCCUACCACAUGAUGAUGCCUGAAGAGCCUUGGUUAUUUG | -4.29
24 | GACCAAUCUGCCCUCAGAGCUCGAGAACAUCUUCGGAUGCAGAGGAGGCAGGCUCCGGUGCCGCGAUAGCGCCAACGUCAUCAACCUCCAAUGCAUCCCACCACAUGAUGAUGCCUGAAGAGCCUUGGUUUUUUG | -3.32
25 | GACCAAUCUGCCCUCAGAGCUCGAGAACAUCUUCGGAUGCAGAGGAGGCAGGCUGCGGUGGCGCGAUAGCGACAACGUCCUCAACCUCCAAUGCAUCCCACCACAGGAUGAUUCCUGAAGAGCCUUGGUUUUAUG | -5.76
26 | GACCAAUCUGCCCUCAGAGCUCGAGAACAUCUUCGGAUGCAGAGGAGGCAGGCUCCGGUGGCGCGAUACCGCCAACGUACUCAACCUCCAAUGCAUCCCACCACAUGAUGAUGCCUGAAGAGCCUUGGUUUUUUG | -3.59
27 | GACCAAUCUGCCCUCAGAGCUCGAGAACAUCUUCGGAUGCAGAGGAGGCAGGCUCCGGUGUCGCGAUAGCGCCAACGUCCUCAACCUCCAAUGCAUCCCACCACAUGAUGAUACCUGAAGAGCCUUGGUUUUUUG | -1.64
28 | GACCAAUCUGCCCUCAGAGCUCGAGAACAUCUUCGGAUGCAGAGGAGGCAGGCUGCGGUGGCGCGAUAGCGUCAACGUCCUCAACCUGCAAUGCAUCCCACCACAUGAUGAUGCCUGAAGAGCCUUGGUUUUUUG | -1.33
29 | GACCAAUCUGCCCUCAGAGCUCGAGAACAUCUUCGGAUGCAGAGGAGGCAGGCUGCAGUGGCGCGAUAGCGCCAACGUCCUCAACCUCCAAUGCAUCCCACCACAUGAUGAUGCCUGAAGAGCCUUGGUUUUUUG | -0.536
30 | GACCAAUCUGCCCUCAGAGCUCGAGAACAUCUUCGGAUGCAGAGGAGGCAGGCUGCGGUGGCGCGAUAGCGCCAACGUCCUCAAACUCCAAGGCAUCCCACCACAAGAUGAUGCCUGAAGAGCCUUGGUUUUUUG | -5.73
31 | GACCAAUCUGCCCUCAGAGCUCGAGAACAUCUUCGGAUGCAGAGGAGGCAGGCUGCGGUGGCGCGAUAGCGUCAACGUCCUCAACCUCCAAUGCAUCCCACCACAUGAUGAUGCCUGAAGAGCCUUGGUUUUUUG | -0.317
32 | GACCAAUCUGCCCUCAGAGCUCGAGAACAUCUUCGGAUGCAGAGGAGGCAGGCUCCGGUGGCGCGAUAGCGCCAACGUCCUCAACCGCCAAUGCAUCCCACCACAUGAUGAUGCCUGAAGAGCCUUGGUUUUUUU | -1.63
33 | GACCAAUCUGCCCUCAGAGCUCGAGAACAUCUUCGGAUGCAGAGGAGGCAGGCUGUGGUGGCGCGAUAGCGCCAACGUCCUCAACCUCCAAUGCAUCCCACCACAUGAUGAUGCCUGAAGAGCCUUGGUUUUUUG | -0.601
34 | GACCAAUCUGCCCUCAGAGCUCGAGAACAUCUUCGGAUGCAGAGGAGGCAGGCUGCGGUGGCGCGAUAGCGCCAACGUCCUCAACCUCCAAUGCAUCCCACCACAUGAUGAUGCCUGAAGAGGCUUGGUUUUUUG | 2.06
35 | GACCAAUCUGCCCUCAGAGCUCGAGAACAUCUUCGGAUGCAGAGGAGGCAGGCUGCGGUGGCGCGAUAGCGCCAAAGUCCUCAACCUCCAAUGCAUCCCACCACAUGAUGAUGCCUGAAGAGCCUUGGUUUUUUG | -0.0105
36 | GACCAAUCUGCCCUCAGAGCUCGAGAACAUCUUCGGAUGCAGAGGAGGCAGGCUGAGGUGGCGCGAUAGCGCCAACGUCCUCAACCUCCAAUGCAUCCCACCACAAGAUGAUGCCUGAAGAGCCUUGGUUUUUUG | -1.04
37 | GACCAAUCUGCCCUCAGAGCUCGAGAACAUCUUCGGAUGCAGAGGAGGCAGGCUGCGGUGGAGCGAUAGCGCCAACGUCCUCAACCUCCAAUGCAUCCCACCACAUGAUGAUGCCUGAAGAGCCUUGGUUUUUUG | -0.186
38 | GACCAAUCUGCCCUCAGAGCUCGAGAACAUCUUCGGAUGCAGAGGAGGCAGGCUGCGGUGGGGCGAUAGCGCCAACGUCCUCAACCUCCAAUGCAUCCCACCACAUGAUGAUGCCUGAAGAGCCUUGGUUUUUUG | -0.626
39 | GACCAAUCUGCCCUCAGAGCUCGAGAACAUCUUCGGAUGCAGAGGAGGCAGGCUGCGGUGGCGCGAUAGCGCCAACGUCCUCAACCUCCAAUGCAUCCCACCAUAUGAUGAUCCCUGAAGAGACUUGGUUUUUUG | -3.72
40 | GACCAAUCUGCCCUCAGAGCUCGAGAACAUCUUCGGAUGCAGAGGAGGCAGGCUGCGGUGGCGCGAUAGCGGCAACGUCCUUAACCUCCAAUGCAUCCCUCCACAUGAUGAUUCCUGAAGAGCCUUGGUUUUUUG | -5.31
41 | GACCAAUCUGCCCUCAGAGCUCGAGAACAUCUUCGGAUGCAGAGGAGGCAGGCUGCGGUGGCGCGUUAGCGCCAACGUCCUCUACCUCCAAUGCAUCCCACCACAUGAUGAUGCCUGAAGAGCCUUGGUUUUUUG | -3.53
42 | GACCAAUCUGCCCUCAGAGCUCGAGAACAUCUUCGGAUGCAGAGGAGGCAGGCUGUGGUGGCGCGAUAGCGCCAACGUCCUCAACCUCCAAUGCAUCCCACCACAUGAUGAUGCCUAAAGAGCCUUGGUUUUUUC | -2.53
